Data taken from US20230226096A1 (Orna Therapeutics, Inc., priority 2020, published 2023).

B1: EV C102 (nucleic acid, listed as Enterovirus sp.)
DNA: CTTTGTACGCCTGTTTTACATCCCCTCCCCCACGTAACTTTAGAAGCAATTCAACAAGTTCAATAGAGGGGGTACAAACCAGTATCACCACGAACAAGCACTTCTGTTTCCCCGGTGATTTTACATAAGCTGTGCCCACGGCTGAAAGTGAATGATCCGTTACCCGCTCGAGTACTTCGAAAAGCCTAGTATCGCTTTGGGATCTTCGACGCGTTGCGCTCAGCACTCTACCCCGAGTGTAGCTTAGGCTGATGAGTCTGGGCATTCCCCATCGGCGACGATGGCCCAGGCTGCGTTGGCGGCCTACCCATGGCTAACGCCATGGGACGCTAGTTGTGAACAAGGTGTGAAGAGCCTATTGAGCTACTCGAGAGTCCTCCGGCCCCTGAATGCGGCTAATCCCAACCACGGATCAGGTGCCTCCAACCCAGGAGGTGGCCTGTCGTAACGCGCAAGTCTGTGGCGGAACCGACTACTTTGGGTGTCCGTGTTTCCTTTTATCTTTTAAATGGCTGCTTATGGTGACAATCATAGATTGTTATCATAAAGCGAATTGGATTGGCCATCCGGTGAAATACAAACACATTATTTACTTGTTTGTTGGATTTACTCCGCTCACACAGCTTACTCCTAAGATAATATTTATTGTATTGCTGGTAAGGAGACACTATTATA
B2: EV I (nucleic acid)
DNA: TTAGTACTTTCTCACGGGGATAGTGGTATCCCTCCCTAGTAATTTAGAAGACTTGAAAAACCGACCAATAGGCACCTCGCATCCAGCGGGGTAAAGGTCAAGCACTTCTGTTTCCCCGGGTCGAGTAGCGATAGACTGTGCCCACGGTCGAAGGTGAAACAACCCGTTATCCGACTTTGTACTTCGGGAAGCCTAGTACCACCAAAGATTATGCTTGGGGTTTCGCTCAGCACGACCCTGGTGTAGATCAGGCCGATGGATCACCGCATTCCTCACAGGCGACTGTGGCGGTGGTCGCGTGGCAGCCTGCCGATGGGGCAACCCATCGGACGCCAAGCATATGACAGGGTGTGAAGAGCCTACTGAGCTACAAAGTATTCCTCCGGCCCCTGAATGCGGCTAATCCCAACCACGGAGCATTTGCTACCAAACCAGGTAGTGGAATGTCGTAACGGGTAACTCTGTGGCGGAACCGACTACTTTGGGTGTCCGTGTTTCCTTTTAATTTATCATTCTGTATATGGTGACAACTATAGTGCTATCTCGATTTGCATTACTATTGTTGAGATTAAAACTTTATTACATTGTTGCATTTTACCCTTTGAGTGAGTTTTCACCTGAACAGATTAATTTACTCATCCTGTTTATATATTACAAGCAGAAATACTTGCAAAG
modifications: Enterovirus I
B3: EV D94 (nucleic acid, listed as Enterovirus sp.)
DNA: CGTGGCGGCCAGTACTCTGGTATCACGGTACCTTTGTACGCCTGTTTTATATCCCCTTCCCCCGCAACTTAGAAGAAAACAAATCAAGTTCACTAGGAGGGGGTACAAACCAGTACCACCACGAACAAGCACTTCTGTTTCCCCGGTGATGTCGTATAGACTGTAACCACGGTTGAAAACGATTGATCCGTTATCCGCTCTTGTACTTCGAAAAGCCCAGTATCACCTTGGAATCTTCGATGCGTTGCGCTCAGCACTCAACCCCAGAGTGTAGCTTAGGTCGATGAGTCTGGACACTCCTCACCGGCGACGGTGGTCCAGGCTGCGTTGGCGGCCTACCTGTGGTCCAAAGCCACAGGACGCTAGTTGTGAACAAGGTGTGAAGAGCCTATTGAGCTACAAGAGAATCCTCCGGCCCCTGAATGCGGCTAATCCTAACCACGGAGCAAGGGTACACAAACCAGTGTATATCTTGTCGTAACGCGCAAGTCTGTGGCGGAACCGACTACTTTGGGTGTCCGTGTTTCCTTTTGTTTTTATCATGGCTGCTTATGGTGACAATCTAAGATTGTTATCATATAGCTGTTGGATTGGCCATCCGGTAATTTATTGAGATTTGAGCATTTGCTTGTTTCTTCAACAATTTCACCTATTCATTGCATTTCAGCAGTCAAA
B4: SA5 (nucleic acid)
DNA: AGTACTTGGTATTCCGGTACCTTTGTACACCTATTTACAAACCCTACCCCTTGTAACCTTAGAAGCAATTATTTAACCGCTCACTAGGGGGTGTGCTATCCAAGCACATCAAGAGCAAGCACTTCTGTCTCCCCGGGAGGGGCTAATGGTACGCTGTGCCCACGGCGGAAATGAGCCCTACCGTTAACCGGCAGTCTACTTCGGGAAGCCCAGTAACTACATTGAAACTTTGAGGCGTTACACTCAGCACATAACCCCAATGTGTAGTTCTGGTCGATGAGCCTTGGCATCCCCCACAGGCGACTGTGGCCAAGGCTGCGTTGGCGGCCAGCCTGCGGACCAAAAGTCCGTAGGACGCCTAATTGTGGACATGGTGTGAAGAGCCTACTGAGCTAGACTGTAGTCCTCCGGCCCCTGAATGCGGCTAATCCTAACCCTGGAGCATCCGCGTGCAACCCAGTACGTAGGGTGTCGTAATGCGTAAGTCTGGGATGGAACCGACTACTTTGGGTGTCCGTGTTTCTTGTTTTTCATACTGGGTCGCTTATGGTTACAACTAATTGTTGTAATCATTGGCAGTGCGCGCTGACCACGCGATTATTGATATTTCCATTTGTTGGATACTCCAATAGTGTCAACTCATATACACAACTTTTACCACTGATCAAGATAAAA
B5: EV J N125 (nucleic acid, listed as Enterovirus sp.)
DNA: CGGTACCTTTGTACGCCTATTTTACCCCCTTCCCCTTGTAACTTAGAAGCAAAGCAAACCAGTTCAATAGTAAGCAACACAACCCAGTGTTGTGACGAACAAGTACTTCTGTTTCCCCGGGAGGGTCTGACGGTAAGCTGTACCCACGGCTGAAGTATGACCTACCGTTAACCGGCTACCTACTTCGAGAAGTCTAGTAATACCATTGAAGTTTTGTTGGCGTTACGCTCAACACACTACCCCGTGTGTAGTTTTGGCTGATGAGTCACGGCATTCCCCACGGGCGACCGTGGCCGTGGCTGCGTTGCGGCCAACCAAGGGGCGCAAGCTCCTTGGACGTCACTTAACAGACATGGTGTGAAGAACCTATTGAGCTAGGTAGTAGTCCTCCGGCCCCTGAATGCGGCTAATCCTAACTCCGGAGCACATCAGTGCAACCCAGCATTTGGTGTGTTGTAATACGCAAGTCTGGAGCGGAACCGACTACTTTGGGTGTCCGTGTTTCCTGTTTTACCTTATTTGGCTGCTTATGGTGACAATTTGATATTGTTACCATATAGCTGTTGGATTGGCCATCCGGATTTTTGAAAGAGACCCAAAACTTTCTTCTCTACTTCAGATTCAAGTGCGAAGTTTTCCTTTTCATATATTACTTACTAATTTGAAGTACCAAAG
B6: PSIV (2x mut for Xba1) (nucleic acid)
DNA: GCAAAATGGGTACGTAGTTAACCACTGCGTATCAGGATTGCAGGCCACGAAGGGTATTTGCATATCTTTCTATGCGGTATTACGGCTTAAAACCCGTTGTATCTTGTTGTTTGACTGCCTGTATCACTAGTGGCCATTTTATTTAGGTTAGAGACCCCTGATAGTAGGAGAGTTACAAACTCTTTAAAAATTGTTGACCCCGGAAAAGATGGTGACCCCTGTAAGTAGTTGATCAAGAAGATCTATGCGCTGGCATAGTAATCCAGTGTTTCCTGTTTTAGGATGACCTCTGAAAGTAGATGACCGTGGAAAGTCACGTAGTGCCCCAATAAGCACGTTTGGGCAGCGTGCGCTATCACAAGGCTTGATCTCCGAGGAGCCCCTTGTTTTAGCTGGCTGGAAGCCAATGATCTTAAGTAGATAAGTGCTGTTGCTTGTAGTTCAACAGAAAGCTTTGAGTACGTCTTTCTTGCGAGAAAGAACACATGCATTCTTATGCTCTCAATTCTATTATTTTTATTTTGGGCGAAAGGAAAGCTCTCACGCGAGTACGAATAGCCAACCCTTTAT
B7: EV 30 (nucleic acid, listed as Enterovirus sp.)
DNA: AAGCAAGGCAAACCTGACCAATAGTAGGTGTGGCACACCAGCCGCATTTTGGTCAAGCACTTCTGTTTCCCCGGACCGAGTATCAATAAGCTGCTCACGCGGCTGAAGGAGAAACCGTTCGTTACCCGACCAGCTACTTCGAGAAACCTAGTAACACTATGAACGTTGCGGAGTGTTTCGTTCAGCACTTCCCCCGTGTAGATCAGGTCGATGAGTCACCGCATTCCTCACGGGTGACCGTGGCGGTGGCTGCGTTGGCGGCCTGCCTACGGGTTCGCCCGTAGGACGCTCTAATACCGACATGGTGTGAAGAGTCCATTGAGCTAGCTGGTAGTCCTCCGGCCCCTGAATGCGGCTAATCCTAACTGCGGAGCAGGTGCTCACAGACCAGTGAGTAGCCTGTCGTAACGGGCAACTCTGCAGCGGAACCGACTACTTTGGGTGTTTTTCCTTTTTTCTTCTCTTATATTGGCTGCTTATGGTGACAATTAAAGAATTGTTACCATATAGCTATTGGATTGGCCATCCGGTGACGAGCAGAGCCATTGTTTACCTCTTTGTTGGATTTGTACCTTTGAACCACAAAGTCTTGAATACCATTCATCTCATTTTAAAGTTCAACTCAGCTAAAAGAAA
B8: EV J 1631 (nucleic acid, listed as Enterovirus sp.)
DNA: CACCCTGAGGGCCCACGTGGCGTAGTACTCTGGTATCAAGGTACCTTTGTACGCCTATTTTATTTCCCTTCCCCCACAGTAACTTAGAAGCTTATCTCATAGTTCAACAGTAGGGTCACTAACCAAGTGGCTCAGCGAACAAGCACTTCTGTTTCCCCGGTCCTAGTACCTGTGAAGCTGTACCCACGGCGGAAGGGGAAAAAGATCGTTATCCGGCCCCCTACTTCGGAAAGCCTAGTAACACCATTGAAGCAATCGAGTGTTGCGCTCAGCACAGTAACCCCTGTGTAGCTTTGGTTGATGAGTCTGGGCACTCCCCACTGGCGACAGCGGCCCAGGCTGCGTTGGCGGCCAACCGACTCGGGCAACCGGGTCGGACGCTCGTTTGTGGACATGGTGTGAAGAGCCTACTGAGCTAGAGGGTAGTCCTCCGGCCCCTGAATGCGGATAATCCTAACCCCGGAGCACCCACACTCAATCCAGAGTGCAGGATGTCGTAACGCGTAAGTCTGGGACGGAACCGACTACTTTGGGTGTCCGTGTTTCCTGTTTTACTTACTTTGGCTGCTTATGGTGACAATCTAGTGTTGTTACCATATAGCTATTGGATTGGCCATCCGGTGTTTTGAATTGTGTGTTTATACTAATTCTTTTACATATCACAGACAACCAAAT
B9: EV F1 BEV 261 (nucleic acid, listed as Enterovirus sp.)
DNA: GCAATGCTGCACCAGTGCACTGGTACGCTAGTACCTTTTCACGGAGTAGATGGTATCCCTTACCCCGGAACCTAGAAGATTGCACACAAACCGACCAATAGGCGCACCGCATCCAGCCGTGCAGCGGTCAAGCACTTCTGTCTCCCCGGTCTGTAAAGATCGTTATCCGCCCGACCCACTACGAAAAGCCTAGTAACTGGCCAAGTGAACGCGAAGTTGCGCTCCGCCACAACCCCAGTGGTAGCTCTGGAAGATGGGGCTCGCACCACCCCCGTGGTAACACGGTTGCCTGCCCGCGTGTGCTTCCGGGTTCGGTCTCGTGCCGTTCACTTCAACTTCACGCAACCAGCCAAGAGCCTATTGTGCTGGGACGGTTTTCCTCCGGGGCCGTGAATGCTGCTAATCCCAACCTCCGAGCGTGTGCGCACAATCCAGTGTTGCTACGTCGTAACGCGTAAGTTGGAGGCGGAACAGACTACTTTCGGTACCCCGTGTTTCCTCTCATTTTATTTAATATTTTATGGTGACAATTGTTGAGATTTGCGCTCTTGCAACGTTGCCATTGAATATTGGCTTATACTATTTGGTTGCCTTTTACAAAACCTCTGATATACCCAGTTCTTACATTGATCTGCTTGTTTTTCTCAATTTGAAGTATAGACTACAAATAGCAAA

Test system: HEK293 cells
Format: cell-based, human
Conditions: luminescence from secreted Gluc in supernatant 24 hours after transfection of HEK293 cells; circular RNA encoding Gluc with the named IRES (UTR truncated to 675 nt)

Question: Which Expression does the source give for B1 here?
Answer: 8.85E+07

Question: With B2 as the molecule, how does the Expression read?
Answer: 1.31E+08

Question: With B3 as the molecule, how does the Expression read?
Answer: 9.25E+07

Question: With B4 as the molecule, how does the Expression read?
Answer: 1.61E+08

Question: How did the Expression turn out when B5 was run?
Answer: 2.90E+07

Question: How did the Expression turn out when B6 was run?
Answer: 9.70E+04

Question: With B7 as the molecule, how does the Expression read?
Answer: 5.48E+06

Question: Which Expression does the source give for B8 here?
Answer: 9.88E+07

Question: Which Expression does the source give for B9 here?
Answer: 1.12E+07
